The text below walks through data of paper PMC9202514.

Substrate in this series: Nc1ncnc2c1ncn2[C@@H]1O[C@H](COP(=O)(O)OP(=O)(O)OP(=O)(O)O)[C@@H](O)[C@H]1O
Nature of the series: DIPP1-coupled Pi-release malachite green assay. It is filed as biochemical, Zea mays. As to conditions: 25 μM InsP6, 3.5 mM MgCl2, 100 mM KCl, pH 7.2, 25 °C.

B1: ZmITPK1 (Zea mays) (protein)
chain: MASDAAAEPSSGVTHPPRYVIGYALAPKKQQSFIQPSLVAQAASRGMDLVPVDASQPLAEQGPFHLLIHKLYGDDWRAQLVAFAARHPAVPIVDPPHAIDRLHNRISMLQVVSELDHAADQDSTFGIPSQVVVYDAAALADFGLLAALRFPLIAKPLVADGTAKSHKMSLVYHREGLGKLRPPLVLQEFVNHGGVIFKVYVVGGHVTCVKRRSLPDVSPEDDASAQGSVSFSQVSNLPTERTAEEYYGEKSLEDAVVPPAAFINQIAGGLRRALGLQLFNFDMIRDVRAGDRYLVIDINYFPGYAKMPGYETVLTDFFWEMVHKDGVGNQQEEKGANHVVVK
By Km is commonly meant the substrate concentration at which the rate is half of its maximum. As to B1, the Km was found to be 364 µM.
